Data set [1] addresses T1, TOP3β (DNA topoisomerase IIIβ) (Giardia lamblia WB, UniProt A8B577 1-973).
T1 sequence: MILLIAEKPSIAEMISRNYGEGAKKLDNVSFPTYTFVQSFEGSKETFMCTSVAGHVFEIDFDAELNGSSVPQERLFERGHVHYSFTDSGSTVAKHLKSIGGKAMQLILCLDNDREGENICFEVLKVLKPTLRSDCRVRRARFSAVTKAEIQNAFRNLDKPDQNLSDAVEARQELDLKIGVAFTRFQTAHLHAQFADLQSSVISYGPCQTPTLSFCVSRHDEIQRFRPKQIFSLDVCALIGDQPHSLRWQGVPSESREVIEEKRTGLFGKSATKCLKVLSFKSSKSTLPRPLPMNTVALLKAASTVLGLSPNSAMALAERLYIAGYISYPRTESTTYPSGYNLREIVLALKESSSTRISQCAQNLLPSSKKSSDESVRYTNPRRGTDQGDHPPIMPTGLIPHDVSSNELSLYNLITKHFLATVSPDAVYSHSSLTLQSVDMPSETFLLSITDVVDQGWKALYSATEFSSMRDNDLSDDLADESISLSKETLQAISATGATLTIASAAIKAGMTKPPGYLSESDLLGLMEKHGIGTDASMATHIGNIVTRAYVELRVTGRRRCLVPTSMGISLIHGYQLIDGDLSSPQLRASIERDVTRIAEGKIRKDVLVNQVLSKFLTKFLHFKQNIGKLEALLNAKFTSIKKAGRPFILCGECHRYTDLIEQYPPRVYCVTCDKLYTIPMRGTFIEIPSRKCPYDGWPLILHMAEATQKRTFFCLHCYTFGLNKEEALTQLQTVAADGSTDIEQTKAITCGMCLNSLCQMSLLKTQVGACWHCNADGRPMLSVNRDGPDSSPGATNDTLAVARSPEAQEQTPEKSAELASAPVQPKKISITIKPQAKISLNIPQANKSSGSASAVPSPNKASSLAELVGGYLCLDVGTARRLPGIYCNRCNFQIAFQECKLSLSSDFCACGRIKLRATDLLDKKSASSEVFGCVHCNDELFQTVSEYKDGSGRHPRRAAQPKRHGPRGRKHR
Kind of data set: EMSA; supershifted by anti-TOP3β; EMSA: 0.02 pmol 32P probe, 5 ng protein, 20 µl, 0.5 µg poly(dI-dC), 15 min at room temperature, 6% acrylamide gel; buffer, salt and pH not given (cited reference). Conditions: protein: recombinant, tags: C-terminal V5 and His. In general terms: Mobility shift assays separate free from complexed probe on a gel.

Data set [2] addresses T1, TOP3β (DNA topoisomerase IIIβ). Kind of data set: EMSA; EMSA: 0.02 pmol 32P probe, 5 ng protein, 20 µl, 0.5 µg poly(dI-dC), 15 min at room temperature, 6% acrylamide gel; buffer, salt and pH not given (cited reference). Conditions: protein: recombinant, tags: C-terminal V5 and His.
The target is the same in data set [3]. Kind of data set: EMSA; strong; EMSA: 0.02 pmol 32P probe, 5 ng protein, 20 µl, 0.5 µg poly(dI-dC), 15 min at room temperature, 6% acrylamide gel; buffer, salt and pH not given (cited reference). Conditions: protein: recombinant; tags: C-terminal V5 and His; label: 5'-32P.

From PMC7058931, “DNA topoisomerase IIIβ promotes cyst generation by inducing cyst wall protein gene expression in Giardia lamblia” come the findings set out here.

B1: cwp1-45/-1 (dsDNA)
DNA 1: GTTTACAACTCTCAGATCAAGAAACACAGAAATAAAATATCAGGG
DNA 2: CCCTGATATTTTATTTCTGTGTTTCTTGATCTGAGAGTTGTAAAC
Consider B1, for which the binding result in data set [1] (label: 5'-32P) is reported as “binds”.
On to GTTTACAACTCTCAGATCAAGAAACACAGAAATAAAATATCAGGG (ssDNA) [cwp1-45/-1F], for which, in data set [2] (label: 32P), the binding result was “binds”.

B2: 18S-30/-1 (dsDNA)
DNA 1: GGCGCCCGGCCCGCGGCGCCCGCGCCCGGC
DNA 2: GCCGGGCGCGGGCGCCGCGGGCCGGGCGCC
Consider B2, for which the binding result in data set [2] (label: 5'-32P) is “no binding”.
As for CTGGCTAACAGTCTACAGTCTACAATTTACAGTATACAATCTACA (ssDNA) [cwp1-90/-46F], the binding result in data set [2] (label: 32P) was “binds”.

B3: cwp1-90/-46 (dsDNA)
DNA 1: CTGGCTAACAGTCTACAGTCTACAATTTACAGTATACAATCTACA
DNA 2: TGTAGATTGTATACTGTAAATTGTAGACTGTAGACTGTTAGCCAG
Take B3: in data set [2] (label: 5'-32P), the binding result is “binds”.
As for TAGACTGATGCTGTAGAGGTCAACAGATAA (ssDNA) [cwp2-60/-31F], the binding result in data set [2] (label: 32P) is on record as “binds”.

B4: 18S-60/-31 (dsDNA)
DNA 1: CCGTGCCAGGCGGCGGCCCCCGCGCAGGGA
DNA 2: TCCCTGCGCGGGGGCCGCCGCCTGGCACGG
On to B4, for which the binding result in data set [2] (label: 5'-32P) is recorded as “no binding”.

B5: cwp2-60/-31 (dsDNA)
DNA 1: TAGACTGATGCTGTAGAGGTCAACAGATAA
DNA 2: TTATCTGTTGACCTCTACAGCATCAGTCTA
Regarding B5, the binding result in data set [3] was “binds”.

B6: ran-51/-20 (dsDNA)
DNA 1: TAAAATAAATTAAATCGAAATTAAAACTTTAA
DNA 2: TTAAAGTTTTAATTTCGATTTAATTTATTTTA
As for B6, the binding result in data set [2] (label: 5'-32P) is on record as “binds”.
With GGCGCCCGGCCCGCGGCGCCCGCGCCCGGC (ssDNA) [18S-30/-1F], in data set [2] (label: 32P), the binding result is reported as “no binding”.
Regarding GTCTTTCCCAAAAAATAAGTTACTACTGATATGTTTTCTC (ssDNA) [cwp3-30/+10F], the binding result in data set [1] (label: 32P) is “binds”.

B7: cwp3-30/+10 (dsDNA)
DNA 1: GTCTTTCCCAAAAAATAAGTTACTACTGATATGTTTTCTC
DNA 2: GAGAAAACATATCAGTAGTAACTTATTTTTTGGGAAAGAC
For B7, the binding result in data set [3] is “binds”.
